Data on 1 molecule can be found in PMC12830800.

The experiment deals with Coxsackievirus A6 (CVA6) strain 54203/HeB/CHN/2012 mature virion (coxsackievirus A6 strain 54203/HeB/CHN/2012).

B1: His-tagged human KRM1 ectodomain (residues A23-G373) (domain or fragment)
chain: APSPGLGPECFTANGADYRGTQNWTALQGGKPCLFWNETFQHPYNTLKYPNGEGGLGEHNYCRNPDGDVSPWCYVAEHEDGVYWKYCEIPACQMPGNLGCYKDHGNPPPLTGTSKTSNKLTIQTCISFCRSQRFKFAGMESGYACFCGNNPDYWKYGEAASTECNSVCFGDHTQPCGGDGRIILFDTLVGACGGNYSAMSSVVYSPDFPDTYATGRVCYWTIRVPGASHIHFSFPLFDIRDSADMVELLDGYTHRVLARFHGRSRPPLSFNVSLDFVILYFFSDRINQAQGFAVLYQAVKEELPQERPAVNQTVAEVITEQANLSVSAARSSKVLYVITTSPSHPPQTVPG
B1: the share of A-particles among the particles after incubation of virions with KRM1 ectodomain (1:120, 35 min, room temperature; cryo-EM classification); none in the untreated sample amounted to 69.8%.
